Experimental data from the supplement of paper PMC9170038.

Test system: MS2 coat protein
Experiment: apparent KD of MS2 coat protein; higher = weaker reporter binding
Settings: Eterna round: R107
Procedure: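 RNA-MaP round R107: designed RNA switches with theophylline, tryptophan, arginine or FMN aptamers are transcribed on-chip within common flanks. They are titrated with SNAP-549-labelled MS2 coat protein in RNA-MaP buffer (100 mM Tris pH 7.5, 80 mM KCl, 4 mM MgCl2), without ligand or with the indicated ligand. Median apparent KD per design.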

[1] = input ligand: theophylline 20 uM
[2] = input ligand: theophylline 2 mM
[3] = input ligand: tryptophan 2.4 mM

Sequence | apparent KD of MS2 coat protein (input ligand: arginine 13.2 mM) [nM] | apparent KD of MS2 coat protein (input ligand: none) [nM] | apparent KD of MS2 coat protein [1] [nM] | apparent KD of MS2 coat protein [2] [nM] | apparent KD of MS2 coat protein [3] [nM]
ACGAUAGGACUUGAGGAACACCCAAGUGAUACCAGCCUGGAAACAGGCCCUUGGCAGCACUAAUACUCCAAUAACCUAUCGAAUA [TheoAX 15 #MicroSwitchBubble #AlternativeMS2] | 140 | 212 | 172 | 66.7 | 155
ACGCCCAGGUAGGCUUAGUGGGAAAUGGAAGGAGCGCUGAUGCAAGCAGGUAGGUCGCCAACGAACAUGAGGAUCACCCAUGUAA [Same State - Arginine A (Freestyle 1)] | 14 | 17.9 | 29.8 | 20.7 | 16.4
ACGCGCUGGGCGGCCGCCACUCACCUGCCGUGGACAUUUCGAGGUCACAUGAGGAUCACCCAUGUGAGGACCGGGCCCUGUAGGC [theeternabot_exclusion_MS2_Trp_B_37] | 12.3 |  | 17 | 12.7 | 
ACGCUGAUUGAUUACAAUCAGCGAAAAGAUACCAGUGGGUAAUCCCACCCUUGGCAGCUUAAACAAGAGGAUCACCCUUGUGGUA [TheoAS 16 #MS2Right #BothOrNeither #AlternativeMS2] | 102 | 201 | 370 | 238 | 521
ACGCUGAUUGAUUACAAUCAGCGAAAAGAUACCAGUGGGUAAUCCCACCCUUGGCAGCUUAAACAUGAGCAUCAGCCAUGUGGUA [TheoAS 15 #MS2Right #BothOrNeither #AlternativeMS2] | 77.9 | 119 | 114 | 37.2 | 142
ACGGAUCGGAAACGAUCCGCGGCAAGGGUACGAGGACCGGUACGGCCGCCACUCGGCUAACAUGAGGAUCACCCAUGUCCGAAGA [ETA NP+V+V2 #8] | 41.9 | 60.7 | 59.7 | 72.2 | 72.2
ACGGAUCGGAAACGAUCCGCGGCUAGGGUGCGAGGACCGGUACGGCCGCCACUCGGGUAACAUGAGGAUCACCCAUGUCCGAUUU [ETA NP+V+V2 #13 Same Structure] | 36.4 | 92.7 | 79 | 143 | 198
ACGUCAUGGAGAACGUGACGACUUAUCGAUACCAGCGAUUGAGAGCGCCCUUGGCAGCGAACAUGAGGAUCACCCAUGUCAAGGG [Same State - Theophylline A] | 29.1 |  | 36.5 |  | 29.4
ACGUGCAGCAGAAGGAGCGUCUUAAUUCUACAUGAGGAUCACCCAUGUUUACAUUGGAUAUGACAGGUAGGUCGCUGAAGUACGA [#05 Same State - Arginine B] | 36.2 | 30 | 41.7 | 37.2 | 18
ACUUGUGAGUCGGCCGCCACUCACCGGUAGUGUCACUCGUUCACAAACAUGAGGAUCACCCAUGUGAGGACCGGGACAGUCGGGU [theeternabot_exclusion_MS2_Trp_B_28] | 13.5 |  | 25.4 | 16.3 | 
AGAGGUAUACAUGGAAACAUGUAUAUUUCACGAGGACCGGUACGGCCGCCACUCGGUACCGGAAACACAUGAGGAUCACCCAUGU [Ex_TrypA - H1] | 17 |  | 23.2 | 24.3 | 
AGAGUCUAGUCGGCCGCCACUCAUGUCCAAUGGACAUGAGGAUCACCCAUGUACCAAAGGUACAUGAGGACCGGGACUGGACUCA [Omei Tryp B SS C v4] | 27.2 |  | 209 | 83.3 | 
AGAGUUAGACAAAAGUCUAGCUCACCAGAAGGAGCGUCCGAAAGGACAGGUAGGUCGCUGGUACAUGAGGAUCACCCAUGUUCCU [ArgAS 8 #OpenEnded] | 43.5 | 124 | 116 | 145 | 82
AGAUGUAGCGGAAGGAGCGACAAGAGGAUCACCCUUGUCUCCCGUUGUGGGAGUUCCUUAGGUCAGGUAGGUCGCCGUUACGUCA [Omei Arg B SS B v4] | 22.7 | 22.9 | 38.4 | 28.6 | 25
AGAUUCGACACGGCCGCCACUCGUGGUGGAUUACCUAGUGUCGAACAUGAGGAUCACCCAUGUACGAGGACCGGGUGUUGAGUCU [XTryp B #18] | 40.5 |  | 85.6 | 86 | 
AGCAACAAGUCGGCCGCCACUCUUUUUACAUGAGGAUCACCCAUGUUUAUAUCAUGGUCUUAAUAGAGGACCGGGACAGUUGCAU [JR_ExcTryptoB_Sub006] | 28.6 |  | 53.7 | 46.9 | 
AGCACAUGAGGAUCACCCAUGUGUCGGUACCGAGGACCGGUACGGCCGCCACUCGCAGGACAUGAGGAUCACCCAUGUGCCGCCG [SSTA DOUBLE!!! :-D #8] | 14 |  | 36.1 | 35.9 | 
AGCAUGUUAUCAGAUACCAGACAUCUUUUUUUACGUAUUACAUGAGGAUCACCCAUGUUGGUCCCUUGGCAGCUGAAAUAUUUCA [JR_Nu_SSTheophyB_Sub022] | 167 |  | 269 |  | 219
AGCUCGCAUCCUCUAGCGUCAAAGACGCCUCGAGGACCGGUACGGCCGCCACUCGAGAUGAGGAUCACCCAUCUCAAAGCGAGCA [TrypAX 14 #SwitchBubble #AlternativeMS2 #MS2Late #CuTurnoff] | 71.6 |  | 197 | 254 | 156

Sequence | apparent KD of MS2 coat protein (input ligand: arginine 13.2 mM) [nM] | apparent KD of MS2 coat protein (input ligand: none) [nM] | apparent KD of MS2 coat protein [1] [nM] | apparent KD of MS2 coat protein [2] [nM] | apparent KD of MS2 coat protein [3] [nM]
AGGACAUGAGGAUCACCCAUGUACUCUGAAGGAGCGUCGAGAACGACAGGUAGGUCGCAGGCUAAGGAAGGUGAUGCUCAAGAAG [Exclusion Arginine A GF7] | 20.1 | 20.2 | 37.3 | 24.8 | 15.2
AGGACCAGGAUCCUCAUGUAACUGGUCCAACGAGGACCGGUACGGCCGCCACUCGAAUAAACAUGAGGAUCACCCAUGUAAUAAU [T''-M-T'-T-MS2] | 36.9 | 268 | 169 | 313 | 426
AGGUGCAAAGCACCCUCUGGCCCUCGUGAAGGAGCGCUCGAAAGAGCAGGUAGGUCGCAUGAGGAUCACCCAUGUGAGCCAGAGA [Arg A Exc A v1] | 35.1 | 52.5 | 83.5 | 65.3 | 56.2
AGUAACAUGAGGAUCACCCAUGUAUGAGAAGGAGCGUGUUUUAACACAGGUAGGUCGCUCAAUAUUAUUUACUAGCGAAAGCUAG [JR_SSArginiA_Sub007] | 22 | 14.6 | 23.3 | 17.9 | 18
AGUACUCGAACGGAUACCAGCCGGACAUGAGGAUCACCCAUGUCCUACCAUGGUUCGGUUGGCCCUUGGCAGCCGUUCGUGUACA [Omei Theo B SS A v3] | 128 |  | 204 |  | 203
AGUAUCAGUGGAAGGAGCGUCGCGAAUGUCACAUGAGGAUCACCCAUGUCGUCUUGAGCGCGACAGGUAGGUCGCCACGGUAGGC [SS-ArgB4] | 12.1 | 10.1 | 15.9 | 14.5 | 13.5
AGUUACAUGAGGAUCACCCAUGUCCGGUUGCGAGGACCGGUACGGCCGCCACUCGGGUACAUCCCAGAAAAUACUGAAUGCCUGC [theeternabot_sameState_MS2_Trp_A_15] | 41.8 |  | 66.4 | 84.5 | 
AUAAAUGGGUUAAUUAGUUUUAGGUCCAGUCGAGGACCGGUACGGCCGCCACUCGUCCCAAGUUACAUGAGGAUCACCCAUGUUA [JR_ExcTryptoA_Sub014] | 33.8 |  | 52.5 | 91.9 | 
AUAACAUGAGGAUCACCCAUGUUGAGUGAUACCAGACCAUGUAGUGUCCCUUGGCAGCACAGGUAAAGUUGUAAAUAACGAUAGA [#13 SameState-TheophyllineA] | 38.6 | 53.9 | 64.7 | 22.8 | 59.7
AUAAGGUAUCUGCUUCAUGGGUGAGCAGAUACCAGCUAGGAAACUAGCCCUUGGCAGCUGCAACAUGAGGAUCACCCAUGUAAUA [(T)'-(M)'-(T1)-(T2)-(M1)-(M2)_Design2] | 60.7 | 1060 | 149 | 964 | 142
AUACAUGAGGAUCACCCAUGUCCUCGUGAUCGAGGACCGGUACGGCCGCCACUCGGUCCUCGCGAGGAGGAGUCAAAGACUCCAA [Omei Trp A SS A v4] | 38.5 | 82.9 | 111 | 113 | 53.8
AUACCACCUUCGGCCGCCACUAUGUAUGGGUUCCCAACGUUGAAGGACAUGAGGAUCACCCAUGUUAGGACCGGGAAAAGUGCCU [theeternabot_exclusion_MS2_Trp_B_17] | 45.3 |  | 106 | 103 | 
AUAUAUACAUGAGGAUCACCCAUGUUAUUUCGAGGACCGGUACGGCCGCCACUCGAUAGAGUAGAAGUAAAUUUUGUUACAUGUA [JR_SSTryptoA_Sub010] | 10.4 |  | 13.7 | 10.8 | 
AUAUAUACAUGAGGAUCACCCAUGUUAUUUCGAGGACCGGUACGGCCGCCACUCGAUAGAGUAGAAGUAACAUGUGUUAGUUGAU [JR_SSTryptoA_Sub014] | 16.3 |  | 32.8 | 39.1 | 
AUAUUAAUCGGAAGGAGCGGUACAUGAGGAUCACCCAUGUGUGAAGCGAGCAGAUCCCGUUACCAGGUAGGUCGCCGAGUUAUGA [XArg-B6] | 85.4 | 213 | 229 | 187 | 148
AUCGUACCUGAGGAUACCAGCAUGUGAUCAUAACAUGAGGAUCACCCAUGUAAUCAGUGAUGCCCUUGGCAGCUUGGUCGAUACA [Same State - Theophylline B (Freestyle 9)] | 42.5 |  | 75 |  | 46.2
AUCUUGUACCGUAAUACUUUACGUUGGGAUACCAGCAUGGACCCAUGCCCUUGGCAGCUUUACAUGAGGAUCACCCAUGUUGUAG [SSTheo A #28] | 26.3 |  | 42.2 |  | 39.9
AUGUCUGAGUCGGCCGCCACUGGGUGUGGGUGAUGCCGGAUGUUGUACAUGAGGAUCACCCAUGUCAGGACCGGGAUUCCCACGA [Receve] | 6.2 | 10.4 | 12.7 | 8.73 | 10.2
